{"source": "paper PMC6382882", "key": {"[1]": {"target": "mKRb, recombinant fragment spanning the ketoreductase domain from module 7 of MLSB (Mycobacterium ulcerans)", "assay": "ITC; ACP species (1 mM) in the syringe injected into mKRb (50 uM) with 5 mM NADP+ in the cell; 25 mM HEPES, 50 mM NaCl, 0.01% NaN3, pH 7.5, 30 °C; single binding site model; mean of three technical replicates"}, "[2]": {"target": "mKRb, recombinant fragment spanning the ketoreductase domain from module 7 of MLSB (Mycobacterium ulcerans)", "assay": "ITC; ACP species (1 mM) in the syringe injected into mKRb (50 uM) with 5 mM NADPH in the cell; 25 mM HEPES, 50 mM NaCl, 0.01% NaN3, pH 7.5, 30 °C; single binding site model; mean of three technical replicates"}}, "data": [{"substance": "apo mACPb, short B1-type ACP domain from module 7 of MLSB (domain or fragment)", "values": [{"measurement": "Kd", "setting": "[1]", "result": 2600, "unit": "nM"}, {"measurement": "Kd", "setting": "[2]", "result": 2200, "unit": "nM"}, {"measurement": "stoichiometry N", "setting": "[2]", "result": 1}]}, {"substance": "apo mH0ACPa, N-terminally extended A1-type ACP domain from module 5 of MLSA1 (from UniProt Q6MZA4 11087-11185) (domain or fragment)", "values": [{"measurement": "Kd", "setting": "[2]", "result": 2200, "unit": "nM"}]}, {"substance": "apo mH0ACPb, N-terminally extended B1-type ACP domain from module 7 of MLSB (domain or fragment)", "values": [{"measurement": "Kd", "setting": "[1]", "result": 1380, "unit": "nM"}, {"measurement": "Kd", "setting": "[2]", "result": 1430, "unit": "nM"}]}, {"substance": "holo mACPb, short B1-type ACP domain from module 7 of MLSB with Ppant (domain or fragment)", "values": [{"measurement": "Kd", "setting": "[1]", "result": 610, "unit": "nM"}, {"measurement": "Kd", "setting": "[2]", "result": 750, "unit": "nM"}]}, {"substance": "holo mH0ACPa, N-terminally extended A1-type ACP domain from module 5 of MLSA1 with Ppant (from UniProt Q6MZA4 11087-11185) (domain or fragment)", "values": [{"measurement": "Kd", "setting": "[2]", "result": 630, "unit": "nM"}]}, {"substance": "holo mH0ACPb, N-terminally extended B1-type ACP domain from module 7 of MLSB with Ppant (domain or fragment)", "values": [{"measurement": "Kd", "setting": "[1]", "result": 710, "unit": "nM"}, {"measurement": "Kd", "setting": "[2]", "result": 690, "unit": "nM"}]}]}
